These results are taken from patent US20210130452A1 (Merck KGaA, published 2021).

By IC50 is commonly meant the concentration that gives 50% inhibition. Broadly, the koff is a measure of how fast the partners let go of each other. The low end stands for a long-lived complex, the high end for a short-lived complex.

Experiment [1] has as its target T1, human IL-17A (human, UniProt Q16552 24-155, biotinylated with Sulfo-NHS-LC-Biotin in the AlphaScreen assays only).
T1 construct: also called hIL-17A; recombinant human IL-17A
The experiment in a line: AlphaScreen competition, hIL-17A - IL-17RA-Fc.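 Note: receptor Fc-fusion plus Acceptor and streptavidin Donor beads incubated with the mixture for 1 h at room temperature before reading.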
Description: (§1) To this mixture, the IL-17RA or IL-17RC Fc-fusions, Acceptor beads and the streptavidin Donor beads were added and further incubated for 1 hour at RT.

Experiment [2] concerns the target T1, human IL-17A. The experiment in a line: AlphaScreen competition, hIL-17A - IL-17RC-Fc.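 Note: Read-out after 1 h at room temperature with the receptor Fc-fusion, Acceptor beads and streptavidin-coated Donor beads present.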
Description: as §1
The target of experiment [3] is T1, human IL-17A. Put plainly: SPR Biacore, hIL-17A on chip; purified protein. (In SPR one partner is held on a chip, and binding of the other changes the refractive index at the surface.)
For experiment [4], the target named is T1, human IL-17A. Put plainly: cell-based or functional assay.
Experiment [5] deals with T2, human IL-17A/F heterodimer (human, UniProt Q16552 24-155; Q96PD4 31-163, limits assumed, biotinylated with Sulfo-NHS-LC-Biotin in the AlphaScreen assays only). The experiment in a line: cell-based or functional assay.
For experiment [6], the target named is T2, human IL-17A/F heterodimer. Put plainly: AlphaScreen competition, hIL-17A/F - IL-17RA-Fc. For orientation: Bead proximity is the source of the signal in Alpha formats.
Description: as §1
For experiment [7], the target named is T2, human IL-17A/F heterodimer. The experiment in a line: AlphaScreen competition, hIL-17A/F - IL-17RC-Fc.
Description: as §1
The target of experiment [8] is T2, human IL-17A/F heterodimer. Put plainly: SPR Biacore, hIL-17A/F on chip; purified protein.
The target of another experiment is T3, mouse IL-17F (mouse, UniProt Q7TNI7 29-161).
T3 sequence (looked up): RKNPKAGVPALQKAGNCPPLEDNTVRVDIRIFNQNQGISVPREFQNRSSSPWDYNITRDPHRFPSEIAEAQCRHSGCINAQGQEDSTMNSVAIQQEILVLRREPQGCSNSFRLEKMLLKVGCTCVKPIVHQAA
The experiment in a line: ELISA, coated IL-17F.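 Note: binding ELISA on coated antigen from various species, with bound Nanobodies revealed by an HRP-linked anti-myc antibody and esTMB substrate.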 For orientation: In an ELISA, binding on a coated surface is turned into a signal by an enzyme label.

The target in the next experiment is T4, rat IL-17F (rat, UniProt Q5BJ95 29-161).
T4 sequence (looked up): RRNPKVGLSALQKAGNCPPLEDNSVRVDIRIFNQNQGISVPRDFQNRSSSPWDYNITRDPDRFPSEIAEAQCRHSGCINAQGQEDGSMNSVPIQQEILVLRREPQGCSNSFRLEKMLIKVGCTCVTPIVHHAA
The experiment in a line: ELISA, coated IL-17F.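 Note: binding ELISA on coated antigen from various species, with bound Nanobodies revealed by an HRP-linked anti-myc antibody and esTMB substrate.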

Experiment [9] deals with T5, human IL-17A (human, UniProt Q16552 24-155).
T5 construct: secreted form (GenBank U32659) expressed in Hek293 with C-terminal 6-His; also called hIL-17A; IL-17A-6HIS
Put plainly: ELISA, coated IL-17A.
Description: (§2) Binding of a selected panel of anti-IL-17 Nanobodies to IL-17 of other species was assessed using a binding ELISA. […] HRP (horseradish peroxidase) conjugated anti-myc (Serotec, MCA 2200P) was used for detection using esTMB as substrate.

For another experiment, the target named is T6, marmoset IL-17A (marmoset, IL-17A is a disulfide-linked homodimer. One chain is given.).
T6 chain: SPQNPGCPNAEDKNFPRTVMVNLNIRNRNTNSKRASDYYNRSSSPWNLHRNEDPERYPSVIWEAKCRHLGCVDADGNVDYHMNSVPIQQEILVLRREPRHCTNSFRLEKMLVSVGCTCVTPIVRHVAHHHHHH
The experiment in a line: ELISA, coated IL-17A.

The next experiment addresses guinea pig IL-17A (guinea pig). Put plainly: ELISA, coated IL-17A.
For another experiment, the target named is T7, human IL-17F (human, UniProt Q96PD4 31-163, biotinylated with Sulfo-NHS-LC-Biotin in the AlphaScreen assays only).
T7 construct: also called hIL-17F; recombinant human IL-17F
T7 sequence: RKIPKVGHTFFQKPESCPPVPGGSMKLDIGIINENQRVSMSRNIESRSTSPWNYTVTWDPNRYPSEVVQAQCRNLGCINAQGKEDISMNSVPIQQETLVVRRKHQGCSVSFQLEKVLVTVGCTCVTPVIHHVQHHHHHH
The experiment in a line: SPR Biacore, hIL-17F on chip; periplasmic extract (*); NB = no binding.

T2 sequence (Q16552 24-155 limits assumed, chain 1 of 2, one chain of several): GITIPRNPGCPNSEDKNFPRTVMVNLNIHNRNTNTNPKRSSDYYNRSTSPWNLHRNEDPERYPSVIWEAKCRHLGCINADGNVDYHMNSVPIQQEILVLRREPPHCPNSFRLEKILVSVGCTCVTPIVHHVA
T1 sequence (Q16552 other isoform, or with tags, fused parts or gaps): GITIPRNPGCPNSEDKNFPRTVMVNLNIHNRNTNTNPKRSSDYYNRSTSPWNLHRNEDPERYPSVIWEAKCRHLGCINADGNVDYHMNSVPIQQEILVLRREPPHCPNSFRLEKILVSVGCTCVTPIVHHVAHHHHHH
T5 sequence (Q16552 other isoform, or with tags, fused parts or gaps): as above
Description for guinea pig IL-17A: as §2
Description for marmoset IL-17A: as §2
Description for mouse IL-17F: as §2
Description for rat IL-17F: as §2

B1: 11C08 (VHH)
VHH: EVQLVESGGGLVQAGGSLRLSCAASGVIFRLNAMGWYRAAPGKQRELVAIIVNGGSTNYADSVKGRFTISRDSAKNAVYLQMNSLKPEDTAVYYCYYNIPGDVYWGQGTQVTVSS
notes: Class 4 Nanobody (cross-reactive: anti-IL-17A, IL-17F and IL-17A/F); not shown: c-myc, His6 tag
Turning to B1, in the experiment with human IL-17A [1], the IC50 is 2.12 nM. Further, the IC50 with human IL-17A [2] turned out to be 4.8 nM. This molecule had a koff in the experiment with human IL-17A [3] of 0.0079 s⁻¹. Further, in the experiment with human IL-17A [4], the “IL-17A-induced IL-6 production in HT-1080 cells, Emax” value (shortened to “IL-17A-induced IL-6 production … Emax”) worked out at 73% and the “IL-17A-induced IL-6 production in HT-1080 cells, IC50” value (shortened to “IL-17A-induced IL-6 production … IC50”) was found to be 130 nM.

B2: 13E05 (VHH)
VHH: EVQLVESGGGKVQAGDSLTLSCVASGGTFSNYAAWFRQAPGKDRRELVVSIFRTGSITYTADSVKGRFTASRVNTKNTVYLQMNSLKPEDTAVYYCASAYNPGVGYDYWGQGTQVTVSS
notes: as for B1
Molecule B2 yielded an IC50 in the experiment with human IL-17A [1] of 0.159 nM. This molecule also registered an IC50 with human IL-17A [2] of 1.09 nM. Besides, the koff with human IL-17A [3] came out at 0.0016 s⁻¹. Moreover, in the experiment with human IL-17A [4], the “IL-17A-induced IL-6 production … Emax” value is 101% and the “IL-17A-induced IL-6 production … IC50” value turned out to be 12.3 nM.

B3: 11A06 (VHH)
VHH: EVQLVESGGGLVQPGESLRLSCKASGFSLDYYALGWFRQAPGKEREGISCITSSDASAYYTDSVKGRFTISRDNSKNTVYLQMNSLKTEDTAIYYCAAALLTCSSYYDAYTYWGQGTQVTVSS
notes: Class 2 Nanobody (anti-IL-17A and IL-17A/F); not shown: c-myc, His6 tag
Regarding B3, the half-inhibitory concentration (IC50) with human IL-17A [1] came out at 0.081 nM; in the experiment with human IL-17A [2], 0.461 nM; in experiment [6] it was 0.14 nM; in experiment [7], 0.039 nM. Also, the “IL-17A/F-induced IL-6 production in HT-1080 cells, Emax” value in [5] amounted to 106%. The “IL-17A/F-induced IL-6 production in HT-1080 cells, IC50” value in [5] was 28.1 nM. In addition, the koff with human IL-17A [3] turned out to be 0.00016 s⁻¹; in experiment [8], 3.8e-05 s⁻¹. Besides, in the experiment with human IL-17A [4], the “IL-17A-induced IL-6 production … Emax” value was found to be 98.5%. For the same molecule, the “IL-17A-induced IL-6 production … IC50” value with human IL-17A [4] was determined as 4 nM.

B4: 13B05 (VHH)
VHH: EVQLVESGGRLVQAGGSLRLSCAASGRTFTSYPMGWFRQAPGKEREFVAAISMSGDDTAYTDFVRGRFTISRDDARNTVYLHMTSLKPEDTAVYYCAARTSYDGTYDYIDDYSYWGQGTQVTVSS
notes: as for B1
B4: the IC50 in the experiment with human IL-17A [1] came out at 0.118 nM; in the experiment with human IL-17A [2], 0.249 nM. The same molecule yielded a koff in the experiment with human IL-17A [3] of 0.0003 s⁻¹. Also, the “IL-17A-induced IL-6 production … Emax” value with human IL-17A [4] was 104%. The “IL-17A-induced IL-6 production … IC50” value with human IL-17A [4] stood at 14 nM.

B5: 03C07 (VHH)
VHH: EVQLVESGGGLVQAGGSLRLSCAASGFTFDDYAIGWFRQAPGKEREAVSCFSSSDGSIYYADSVKGRFTISSDNAKNTVYLQMNSLKPEDTAVYYCAGGGGSYYYTQLNYCYDMDYWGKGTQVTVSS
notes: as for B3
In the case of B5, the IC50 turned out to be 0.084 nM in the experiment with human IL-17A [1] and 0.371 nM with human IL-17A [2]. Further, the koff with human IL-17A [3] was 0.0002 s⁻¹. For the same molecule, the “IL-17A-induced IL-6 production … Emax” value with human IL-17A [4] stood at 101%. Besides, the “IL-17A-induced IL-6 production … IC50” value in the experiment with human IL-17A [4] was determined as 4.2 nM.

B6: 24B08 (VHH)
VHH: EVQLVESGGGLVQAGGSLRLSCAVSGGTFSTYKMGWFRQAPGKEREIVARISTNGPTAYAEFVKGRFTVSRENTKNTVYLQMNSLNIEDTAVYYCAAGYDSLFAGYDYWGQGTQVTVSS
notes: Class 3
Regarding B6, the OD is -0.0015 OD with mouse IL-17F; 0.0035 OD with rat IL-17F; 0.103 OD with human IL-17A [9]; 0.129 OD in the experiment with marmoset IL-17A; 0.012 OD in the experiment with guinea pig IL-17A.

B7: 01A01 (VHH)
VHH: EVQLVESGGGLVQAGGSLRLSCAASGFTFDDYDIGWFRQAPGKEREGVSCFTSSDGRTFYADSVKGRFTVSADNAKNTVYLQMNSLEPEDTAVYFCAAVNTFDESAYAAFACYDVVRWGQGTQVTVSS
notes: as for B1
For B7, the IC50 with human IL-17A [1] was determined as 0.051 nM. In the experiment with human IL-17A [2], the half-inhibitory concentration (IC50) amounted to 0.211 nM. The molecule also returned a koff with human IL-17A [3] of 8.5e-05 s⁻¹. Also, in the experiment with human IL-17A [4], the “IL-17A-induced IL-6 production … Emax” value amounted to 104% and the “IL-17A-induced IL-6 production … IC50” value is 2.7 nM.

B8: 07B11 (VHH)
VHH: EVQLVESGGGLVQAGGSLRLSCVASGRAFSSYVMGWFRQAPGMEREFVALIRWSDGITGYVDSVKGRFTISRDNAKNTVYLQMNSLKPEDTAVYYCAAAVRPGDYDYWGQGTQVTVSS
notes: Class 3
B8: the OD is -0.0005 OD in the experiment with mouse IL-17F, -0.0105 OD with rat IL-17F, 0.03 OD with human IL-17A [9] and 0.007 OD in the experiment with guinea pig IL-17A.

B9: 07B09 (VHH)
VHH: EVQLVESGGGLVQAGGSLRLSCGASGGTFSSYATGWFRQAPGKEREFVAVLRWSDGHTAYADSVKGRFTISRDGAKNTMYLQMSSLKPEDTAIYYCTTATRPGEWDYWGQGTQVTVSS
notes: Class 3
Turning to B9, the OD in the experiment with mouse IL-17F is -0.0015 OD; with rat IL-17F it was 0.0025 OD; in the experiment with human IL-17A [9] it was 0.005 OD; with marmoset IL-17A, 0.005 OD; with guinea pig IL-17A it was 0.009 OD.

B10: 08H01 (VHH)
VHH: EVQLVESGGGLVQAGGSLRLSCGASGGTFSSYATGWFRQAPGKEREFVAVLRWSDSHTAYADSVEGRFTISRDGAKNTVYLQMSSLKPEDTAIYYCTTGTRPGEWHYWGQGTQVTVSS
notes: Class 3
As for B10, the OD is -0.0005 OD with mouse IL-17F, 0.0045 OD with rat IL-17F and 0.007 OD in the experiment with guinea pig IL-17A.

B11: 24G10 (VHH)
VHH: EVQLVESGGGLVQAGGSLRLSCGAAGGTFSSYATGWFRQAPGKEREFVAVFRWSDSHTAYADSVKGRFTISRDGAKNTLYLQMSSLKPEDTAIYYCTTATRPGEWDYWGQGTQVTVSS
notes: Class 3
For B11, the OD with mouse IL-17F is -0.0005 OD; with rat IL-17F, 0.0025 OD; in the experiment with human IL-17A [9], 0.009 OD; with guinea pig IL-17A, 0.008 OD.

B12: 06E11 (VHH)
VHH: EVQLVESGGGLVQAGGSLRLSCPVSGRAFSRGRLGWFRQAPGKEREFVAVAHWSGAITSYADSVKGRFTFSRDNAKNTMNLQMNSLKPEDTAVYYCAADSETSGNWVYWGQGTQVTVSS
notes: Class 3
On to B12, for which the OD with mouse IL-17F was found to be 0.0215 OD; with rat IL-17F, 0.0085 OD; with guinea pig IL-17A, 0.006 OD.

B13: 04B09 (VHH)
VHH: EVQLVESGGGLVQPGGSLRLSCAASGFTLGYYAIGWFRQAPGKEREGVSCDSSSDGDTYYANSVKGRFTISTDNGKNTVYLQMNSLKPEDTAVYYCATCTDWNYDYWGQGTQVTVSS
notes: as for B3
Turning to B13, the binding result with human IL-17F was “no binding”.

B14: 02A08 (VHH)
VHH: EVQLVESGGGVVQPGGSLRLSCADSERSFSFNAMGWFRQAPGKEREFVAAISATGDDTYYADSVKGRFAISRDTARNTVYLQMNSLKPEDTAVYYCGARVNFDGTVSYTNDYAYWGQGTQVTVSS
notes: as for B3
Consider B14, for which the IC50 with human IL-17A [1] is 0.126 nM. The IC50 with human IL-17A [2] amounted to 0.419 nM. The molecule also had a koff with human IL-17A [3] of 0.00042 s⁻¹. Besides, in the experiment with human IL-17A [4], the “IL-17A-induced IL-6 production … Emax” value came to 103% and the “IL-17A-induced IL-6 production … IC50” value amounted to 8.8 nM.
